Measured values: patent publication US20240229045, “APTAMER FOR SPECIFICALLY RECOGNIZING SOLUBLE ST2 PROTEIN AND APPLICATION OF THE SAME” (BEIJING INSTITUTE OF HEART, LUNG AND BLOOD VESSEL DISEASES, published 2024)

What was measured:
[1] = target: T1, soluble ST2 (sST2, IL1RL1 soluble isoform) (Homo sapiens, UniProt Q01638-2 Q01638-2:19-328); assay: EMSA; strong binding; room temperature 30 min
Experimental: According to the experimental formula shown in Table 4, the aptamer was added to the buffer solution and nuclease-free water, heated at 95° C. for 10 minutes, quenched on ice for 10 minutes, and room temperature for 10 minutes.
The above DNA solution and sST2 protein were slowly mixed to a final volume of 20 μL, and a sample containing only aptamer and no protein was used as a negative control, and incubated with rotation at room temperature for 30 minutes.

[2] = target: T1, soluble ST2 (sST2, IL1RL1 soluble …); assay: fiber-optic fluorescence, sST2 immobilised; 137 mM NaCl, 2.7 mM KCl, phosphate

T1 sequence (Q01638 other isoform, or with tags, fused parts or gaps): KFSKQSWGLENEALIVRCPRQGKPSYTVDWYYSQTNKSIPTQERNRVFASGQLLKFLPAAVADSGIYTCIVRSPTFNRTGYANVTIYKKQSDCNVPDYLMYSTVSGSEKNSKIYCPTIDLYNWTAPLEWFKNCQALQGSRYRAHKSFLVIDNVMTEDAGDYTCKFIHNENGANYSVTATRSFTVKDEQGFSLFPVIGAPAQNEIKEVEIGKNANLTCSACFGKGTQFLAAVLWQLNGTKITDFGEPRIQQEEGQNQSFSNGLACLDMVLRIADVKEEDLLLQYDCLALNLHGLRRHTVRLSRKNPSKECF

Binder	binding result [1]	Kd [2]
TCCATCCACTCGGGCCCTAGGGCGTGTATGTCCAT (ssDNA) [Apt2]	binds	
TCCATCCACTCGGGGCGGGGGCTCGTGCTCTATTTC (ssDNA) [Apt4]		127 nM
TCCATCCACTCGGGGCTAGAAGCCGTGAGAATCTG (ssDNA) [Apt1]	binds	
TCCATCCACTCGGCCTACTAAGGGTTTCGTTCACC (ssDNA) [Apt3]	binds	
TCCATCCACTCGGCGCCACGCGGTTTCTCCAGATT (ssDNA) [Apt8]	binds	
